The results in this text go back to the nanobody polyreactivity screen of Harvey et al. (2022).

The series can be described thus: yeast display, Sf9 membrane polyspecificity reagent, FACS + sequencing; frameworks hold sequencing errors. In outline:
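After 36–48 hours of galactose induction, yeast (Saccharomyces cerevisiae BJ5465) displaying a synthetic nanobody library were stained at 4 °C for 1 hour with 10% biotinylated, detergent-solubilized Sf9 membrane reagent. Streptavidin microbeads enriched the stained cells before FACS sorting into low and high (top ~1%) gates on anti-HA and streptavidin fluorescence. Each clone's polyreactivity label reflects its gate of origin.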
With “QVQLVESGGGLVQAGGSLRLSCAASGSTFGVYAMGWYRQAPGKERELVATITRSGGNTYYADSVKGRFTISRDNAKNTVYLQMNSLKPEDTAVYYCAARRLYGSQRGYWGQGTQVTVSS”, the “polyreactivity (PSR sort gate)” value is given as “high polyreactivity”. To “QVQLVESGGGLVQAGGSLRLSCAASGFIQDYYAMGWYRHAPGKERELDAAISSGGTDTYYADSVKGRFTVSRDTAKNTVYLQMNSLKPEDTAVYYFAADSYWSAYDYWGQGTQVTVSS” belongs “low polyreactivity”. For “QVQLVESGGGLVQAGGSLRLSCAASGYISFGYAMGWYRQAPGKEREFVAAISVGGGTTYYADSVKGRFTISRDNAKNTVYLQMNSLKPEDTAVYYCAVGKYNYRGSWDYYWGQGTQVTVSS”, the “polyreactivity (PSR sort gate)” value is reported as “high polyreactivity”. Take “QGQPVESGGGLVQAGGILRLSCAASGFISGGNAMGWDRQAPGKEREFVAAIDNTGSTYYADSVKGRFTISRDNEKNTVYLQMISLKPEDTAVYYFNAEVTEDYVDNDYGGQGTQVTVSS”: the “polyreactivity (PSR sort gate)” value was “low polyreactivity”. As for “QVQLVESGGGLVQAGGSLRLSCAASGIFYFYAMGWYRQAPGKERELVAAITSSGGNTTYADSVKGRFTISRDNAKNTVYLQMNSLKPEDTAVYYCNAEAYSYGFDYWGQRTQVTVSS”, the entry is “low polyreactivity”; as for “QVQLVESGGCLVQAGGSLRLSCAASGRIFYSYAMGWYRQAPGKERELVATISSGGSTNYADSVKGRFTISRDHAKNTVYLQMNSLKPEDTAVYFCAAADRLYWRGVIYRQYDYWGLGTQVTVSS”, “high polyreactivity”. Take “QVQLVESGGGLVQAGGSLRLSCADSGIIFHEYAMGWYRQAPGKERELVASISWNDGSTYADSVKGRFTISRDNAKNTVYLQMNSLKPEDTAVYYCAADYPYYPFSSIYDYWGQGTQVTVSS”: the “polyreactivity (PSR sort gate)” value is on record as “low polyreactivity”. Take “QVQLVESGGGLVQAGGSLRLSCAASGGTITSYAMGWYRQAPGKERELVAAITRSGGSTYYADSVKGRFTISRDNAKNTVYLQMNSLKPEDTAVYYCAARYSTYPWYNSWGQGTQVTVSS”: the “polyreactivity (PSR sort gate)” value is on record as “high polyreactivity”.

In the case of “QVQLVESRGGLVQAGGSLRLSCAASGRTFGRNTMGWYRQAPGKERELVAAISISGTSTYYADSVKGRFTISRDNAKNTVSLQMNSLKPEDTAVYDCAARYIRGSYGMGYWGQGTQVTVSS”, the “polyreactivity (PSR sort gate)” value is “high polyreactivity”.

On to “QVQLVESGGGLVQAGGSLRLSSAASGRTFEGYAMGWYRQAPGKERELVAAISGSSGSTYYADSVKGRFTISRDNAKNTVYLQMNSLKPEDTAVYYCNADYDWPGGSDYWGQGTQVTVSS”, for which the “polyreactivity (PSR sort gate)” value is “low polyreactivity”. As for “QVQLVESGGGLVQAGGSLRLSCAASGSNLTFYAMGWYRQAPGKERELVAAITWRGGSTYYADSVKGRFTISRDNAKNTVYLQMNSLKPEDTAVYYCAAEQVGYYLNWRDYWGQGTQVTVSS”, the entry is “high polyreactivity”; as for “QVQLVESGGGLVQAGGSLRLSCAASGFIFRKYTMGWYRQAPGKERELVATIDSSGGSTYYADSVKGRFTISRDNAKNTVYLQMNSLKPEDTAVYYCNADLRELSPWYWYSGEMDYWGQGTQVTVSS”, “low polyreactivity”. As for “QVQLVESGGGLVQAGGSLRLSCAASGSIYGDYVMGWYRQAPGKERELVAAINRGGYTYYADSVKGRFTISRDNAKNTVYLQMNSLKPEDTAVYYCAAGYPSWYYGYPYDSWGQGTQVTVSS”, the entry is “low polyreactivity”; as for “QVQLVESGGGLVQAGGSLRLSCAASGRTFKYYAMGWYRQAPGKERELVAGISSTGRTNYADSVKGRFTISRDNAKNTVYLQMNSLKPEDTAVYYCNAERKSFGKFDYWGQGTQVTVSS”, “high polyreactivity”.

On to “QVQLVESGGGLVQAGGSLRLSCAASGSTFGTNAMGRYRQAPGKERELVAVITFSGGSTYYADSVKGRFTISRDNAKNTVYLQMNSLKPEDTAVYYCAKDGFITFVYDHDYWGQGTQVTVSS”, for which the “polyreactivity (PSR sort gate)” value was “low polyreactivity”. As for “QVQLVESGGRLFQAGGSLRLSCAASRSIFSTYGKGWYRQPPGKERELVAAITSGVGRTNYADSVKGRFTISRDNAKNTVDLQMNSLKPEDTAVNYCAVRSLGTLDVYDLATEYDYWGQGTQVTVSS”, the entry is “low polyreactivity”. To “QVQLVESGGGLVKAGGSLRLSCAASGRTFLRNAMGWYRQAPGKERELVATITRGGSTYYADSVKGRFTISRDNAKNTVYLQMNSLKPEDTAVYYCAKDITGGFRRPDYGYWGHGTQVTVSS” belongs “low polyreactivity”; to “QVQLVESGGGLVQAGGSLRLSCAASGSIIFNNAMGWYRQAPGKERELVAAITTGGSTYYADSVKGRFTISRDNAKNTVYLQMNSLKPEDTAVYYCAAVVVYPYRLGYDYWGQGTQVTVSS”, “low polyreactivity”. As for “QVQLVESGGGLVQAGGSLRLSCAASGLTFTHYARGWYREAPGKERELVAAISRSGGTTYYADSVKGRFTISRDNAKNTLYFQMNSLKPEDTAVYYCAARWWYRYNYDYWGLGTQVTVSS”, the entry is “high polyreactivity”; as for “QVQLVESGGGLVPAGGSLRLSCAASGRSLSRYTMGWYRQAPGKERELVAAISTSGSTYYADSVKGRFTISRDNAKNTVYLQMNSLKPEDTAVYFCNAVRRYLQYATGYAYWGQGTQVTVSS”, “high polyreactivity”; as for “QVQLVESGGGLVQAGGSLRLSCAASGLIFVFNTLGWYRQAPGKEMELVAVITSGGSTNYADSVKGRFTISSDNEKNTVYLQMISLKPEDTAVYYCNVDRQVITGRYIGDYWGEGTQVTVSS”, “low polyreactivity”. On to “QVQLVESGGGLVQAGGSLRLSCAASGSTFKRYAMGWYRQAPGKERELVASISSGGSTNYVDSVKGRFTISRDNAKNTVYLQMNSLKPEDTAVYYCAVSYRSFRYYWERYYSWGQGTQVTVSS”, for which the “polyreactivity (PSR sort gate)” value is “high polyreactivity”. To “QVQLQESGGGLMQAGGNLRLSCAASGYISTHYDMDWYRPAPGKERELVARIDDGAITNYADSVKGRFTISRDNAKNTVYLQMNSLKPEDTAVYYCAVYSGDDYYHDYWGQGTQVTVSS” belongs “low polyreactivity”. To “QVQLVESGGGLLQAGGSLRLICAASGRIFTYNAMGWYRQAPGKERELVAAISRRGGTTYYADSVKGRFTISRDNAKNTVYLQMNSLKPEDTAVYYCAALLYYATDDDYWGQGTQVTVSS” belongs “high polyreactivity”; to “QVQLVESGGGLVQEGGSLRLSCAASGRTFYTNAMGWYRPAPGKERELVAVISRGGTTFYADSVKGRFTISRDNAKNTVYLQMNSLKPEDTAVYYCAKQRPSGDSSSQMGSWGQGTQVTVSS”, “low polyreactivity”; to “QVQLVESGGGLVQAGGSLRLSCAASGRIFYAYAMGWYRQAPGKERELVAAITFSGGSTYADSVKGRFTISRDNAKNTVYLQMNSLKPEDTAVYYCAADFGRHPRDYDYYWGQGTQVTVSL”, “low polyreactivity”. To “QVQLVESGGGLVQAGGSLRLSIDASGRIFYPYVMGWYRQAPGQERELVAAISDSTGSTYYADSVKGRFTISRDNAKITVYLEMNSQKPEDTAVFYCAAGWFYATYWRFYYCGQGTQVTVSS” belongs “low polyreactivity”.

For “QDQLVESGGGLVQAGGSLRLSCAASGRTFPRNGMGWYRQAPGKERELVAAISWSGGRTYYADSVKGRFTISRDNAKNTVYLQMNSLKPEDTAVYYCNALYFRKGGYWGQGTQVTVSS”, the “polyreactivity (PSR sort gate)” value is reported as “high polyreactivity”. Consider “QVQLVESGGGLVQAGGSLRFSCAASGRIFRRYAMGWYRQAPGKERELVAAITQSGDSTYYADSVKGRFTISRDNAKNTVYLQMNSLKPEDTAVYYCAAAGGPYRYNYWGQGTQVTVSS”, for which the “polyreactivity (PSR sort gate)” value is on record as “high polyreactivity”.

Consider “QVQLVESGGGLVQAGGSLRLSCAASGRTFRANAMGWYRQAPGKERELFAAISKRGGNTYYADSVKGRFTISRDNAKNTVYLQMNSLKPEDTAVYYCADDFICRDYDYWGQGTQVTVSS”, for which the “polyreactivity (PSR sort gate)” value is “high polyreactivity”.

For “QVQLVESGGCLVQAGGSLSLSCAASGFTFSWNAMGWYRQAPGKERELVATITRSGSTYYADSVKGRFTISRDNAKNTVYLLMNSLKPEDTAVYYCAVVSWYRYSRYENDYWGQGTQVTVSS”, the “polyreactivity (PSR sort gate)” value is “high polyreactivity”. As for “QVHLVESGGGLVQAGGSLRLICAASGRILYLYAMGWYRQAPGKERELVARISQRDGSTYYADSVKGRFTISRDNAKNTVYLQMNSLKPEDTAVYYCNADFYLGSYGYSYDYWGQGTQVTVSS”, the entry is “low polyreactivity”; as for “QVQLVESGGGLVQAGGSLRLSCAASGSTFDFNAMGWYRQAPGKERELVAAITSGGGSTYYADSLKGRFTISRDNAKNTVYLQMNSLKPEDTAVYYCAADDIVLRYDYWGQGTQVTVSS”, “low polyreactivity”; as for “QVQLVESGGGLVQAGGSLRLSCAASGSIFEGYAMGWYRQAPGKERELVAAISRSGGSTYYADSVKGRFPISRDNAKNTVYLQMNSLKPEDTAVYYCAARKAIDYQGRHDHWGQGTQVTVSS”, “low polyreactivity”.

In the case of “QVQLVESGGGLVQAGGSLRLSCAASGITIYGYAMGWYRQAPGKERELVAAITRSGGGTYYADSVKGRFTISRDNEKNTVYLQMISLKPEDTAVYYCAADSYSQYTMDYWGQGTQVTVSS”, the “polyreactivity (PSR sort gate)” value was “high polyreactivity”.

With “QVQLVESGGGLHQAGGSLRLSCAASGSISGYNPMGWYRQAPGKESELVAVNTTDGSTNYADSVKGRFTISRDNAKNTVYLQMNSLKPEDTAVYYCNTHDGWRLLWEYDYWGQGTQVTVSS”, the “polyreactivity (PSR sort gate)” value was “low polyreactivity”. Regarding “QVQLVESGGGLVQAGGSLRLSCAASGSIFYPYAMGWYRQAPGKERELVAAISYNGGSTYYADSVKGRFTISRDNAKNTVYLQMNSLKPEETAVYYCAARPYHGKLDYWGQGTQVTVSS”, the “polyreactivity (PSR sort gate)” value is recorded as “low polyreactivity”.

For the sequence “QVKLHESGGGLVQAGDSQRLSCAASGNIFRFTDMGWSRQAPRKERELVAAINAGSTTYYADSVKGRFTISRDNAKNTVYLQKNSLKPEDTAVYYWAVYYLGSGTFGYWGQGAQVTVSS”, the “polyreactivity (PSR sort gate)” value is given as “high polyreactivity”. For the sequence “QVQLVESGGGLVQAGGSLRLSCAASGSIFEGYAMGWYRQAPGKERELVARITSDDDSTYYADSVKGRFTISRDNAKNTVYLQMNSLKPEDTAVYYCNADYYCTSLAMDSWGQGTQVTVSS”, the “polyreactivity (PSR sort gate)” value was “low polyreactivity”.

For the sequence “QVQLVESVGGLVQAGGSLRLSCAASGIIFWWYAIGWYRQAPGKERELVAAINWSGSSTYYADSVKGRFTISRDNAKNTVYLQMKSLKPEDTAVYYCATAGIIQAESEYLSGYDYWGQGTQVTVSS”, the “polyreactivity (PSR sort gate)” value was “high polyreactivity”. Take “QVQLVESGGGLVQAGGSLRLSCAASGLIFSYNAMGWYRQAPGKERELVAAISYSGGSTYYADSVKGRFTNSRDNAKNTVYLQMNSLKPEDTAVYYCAAVWRRQGSAYVGSYGYDYWGQGTQVTVSS”: the “polyreactivity (PSR sort gate)” value is listed as “high polyreactivity”.
